The values that follow come from the RNAGym collection of RNA variant scans (doi:10.1073/pnas.2313332121).

The chains are these.
B1: TPR t1 (parent)
chain: GACCAAUCUGCCCUCAGAGCUCGAGAACAUCUUCGGAUGCAGAGGAGGCAGGCUUCGGUGGCGCGAUAGCGCCAACGUCCUCAACCUCCAAUGCAUCCCACCACAUGAUGAUGCCUGAAGAGCCUUGGUUUUUUG

Variants of B1 are the subject of this series. The series can be described thus: polymerase ribozyme fitness, log enrichment relative to wild type (log ratio); higher = more active; in vitro selection for triplet polymerase activity. In a few lines:
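Mutant libraries were PCR-built and transcribed for each subunit of a heterodimeric triplet polymerase ribozyme and selected for one round in triplicate at −7 °C, frozen, before gel excision of extended constructs and streptavidin-bead capture. Input and output libraries were Illumina-sequenced, keeping genotypes with ≥10 input reads and ≥1 read per output. Fitness is a logarithmic ratio of genotype to wild-type enrichment, in base 2, using inverse-variance-weighted replicate averages.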
Take A2U G45U: the “polymerase ribozyme fitness (log ratio)” value was -3.96.
In the case of C3U C40U G117U, the “polymerase ribozyme fitness (log ratio)” value is -3.25.
Next, C3U G17C G61C G117U: -5.52.
As to C3U G61A U78G U112G, the “polymerase ribozyme fitness (log ratio)” value was -0.547.
Under C3G C88G stands -2.34; under C3U G61U U78G U92G G120A G127U, -2.24; under A2C G71A, -2.36.
On to A2C G71U, for which the “polymerase ribozyme fitness (log ratio)” value is -2.08.
Under C3U C56G A83U C85A stands -3.16.
Under A2G C8U U87A C89U C123A stands 1.08; under A2G G52U A91U A95C, -3.47.
For the variant A2G C8G C70G, the “polymerase ribozyme fitness (log ratio)” value was -2.83.
Next, A2U U7A A46C G48A C82A G127C: -4.28.
For A2G A5G C20A A46C U112G G122U U129C, the “polymerase ribozyme fitness (log ratio)” value is -5.3.
Under C3A C28U G57A G69U C82U stands -3.79; under A2G G39U, -1.18.
On to A2U A5C G69A C86U, for which the “polymerase ribozyme fitness (log ratio)” value is -6.09.
Next, C3G G10A U106A: -2.9; C3A G110C U112A G117A U132C: -6.59; C3G G93U C98U G128C: -2.57.
Next, A2C G77U: -2.28; A2G C97U G113U C114G: -3.04.
On to C3U C70U G110A, for which the “polymerase ribozyme fitness (log ratio)” value is -2.71.
With A2U A43G G45A C72G A84G A111U, the “polymerase ribozyme fitness (log ratio)” value is -6.25.
Under C3G G19A C20G C88G U112G C115U stands -5.61.
Turning to C3U C20U, the “polymerase ribozyme fitness (log ratio)” value is -1.7.
Turning to C3U C40G G42U C82U C89U C94U, the “polymerase ribozyme fitness (log ratio)” value is -3.64.
As to C3U C13G A111C, the “polymerase ribozyme fitness (log ratio)” value is -1.32.
Next, A2G G57A C104A: -3.56; C3U C13U C85U U87A A95C: -2.29.
Next, C3U G10A U21C G61A C98U A119U: -2.55; A2C G61A C94U: -0.931; A2U G47A C123A: -2.56.
For A2U C114U, the “polymerase ribozyme fitness (log ratio)” value is -4.35.
C3G C13A: the “polymerase ribozyme fitness (log ratio)” value is -3.57.
Under A2C U38G C79G A121C stands -2.95.
Next, C3G C72U: -2.37; C3G C72A: -1.64; A2U G57C C82U C98U: -3.78.
Under A2C C28U G71A U78A A90G stands -5.83.
As for C3U U9A, the “polymerase ribozyme fitness (log ratio)” value came out at 0.706.
On to C3G C28U G61U G120C U125G, for which the “polymerase ribozyme fitness (log ratio)” value is -4.18.
Next, A2C G69A C114A: -4.75; A2U C56A: -2.33.
Under A2U G65A C80G A84G C115U G117A G127U stands -5.92; under C3A A18G G19C A90U C123U U129G, -0.538.
Next, C3G C12G A83C U106A: -2.23; C3U G69C C88G U96G: -2.75; A2G C79A: -0.844.
In the case of C3A C72U C94G, the “polymerase ribozyme fitness (log ratio)” value was -3.51.
Under C3U G61A A91U stands -1.66; under A2G G113A, -1.6.
Regarding A2U A16G C72A, the “polymerase ribozyme fitness (log ratio)” value was -3.41.
With C3U G10U A41C C115U U126G, the “polymerase ribozyme fitness (log ratio)” value is -6.14.
Under C3U C94U U106C stands -0.635; under C3A C8U, -1.3; under A2G C34U, -4.37.
Next, C3U C64U G71U C85G A121U: -4.22.
In the case of A2U U59C C62G C94U C123A U125G, the “polymerase ribozyme fitness (log ratio)” value is -6.19.
Under C3A C62U A105G stands -4.05.
Under A2G U9G U106G U112C U130A stands -0.197.
Next, C3A C40A G93U G110U: -3.31; A2G C28U G93C C124G U133G: -2.71; A2G G77A C80A C124A: -0.514.
Regarding A2U C79U C104A, the “polymerase ribozyme fitness (log ratio)” value is -4.26.
Under C3A C97A C114U stands -5.53; under A2G C12U G17C U78C C86G, -4.66; under C3U C53A C72G, -1.22.
Under C3A G60A stands -1.52; under C3A G60U, -1.28.
On to C3A A83C C97U G110A, for which the “polymerase ribozyme fitness (log ratio)” value was -3.93.
With A2C G63C U130A, the “polymerase ribozyme fitness (log ratio)” value is -2.69.
Consider A2G C22U G61A A75U, for which the “polymerase ribozyme fitness (log ratio)” value was -4.04.
Next, C3U C28A U112A: -2.92; C3U C40U U54C U92G: -3.03.
Under A2U C94U C104U stands -2.44; under C3U C8A G25A C31G C70G U92A C94A C98G C99G G117U, -6.98; under C3U U7C A18C G52A C94A, -5.04.
Next, A2G U59G G122A U129C: -0.941.
With C3A G39U, the “polymerase ribozyme fitness (log ratio)” value was -2.46.
Next, C3U C12U G110A: -0.836.
Turning to A2U C40A, the “polymerase ribozyme fitness (log ratio)” value was -3.29.
As for A2U A5C, the “polymerase ribozyme fitness (log ratio)” value was -2.09.
Next, C3A C4G G10A G61A C123G: 0.689.
Under A2G C15U A37U C101G C104A stands -5.07; under A2G C4G C8G G47U U54C C72A, -2.53.
For the variant C3A U59G U78A C89A G120U, the “polymerase ribozyme fitness (log ratio)” value was -3.26.
C3U C20A A46G C72G G113U: the “polymerase ribozyme fitness (log ratio)” value is -0.27.
Regarding C3U G47A G61A A84C, the “polymerase ribozyme fitness (log ratio)” value is -0.617.
Under A2C C56G stands -1.9; under C3A C12G A26U U30G G65C A121C U130C, -6.48; under A2U U32C C79A, -4.3.
On to A2G G52A C99U, for which the “polymerase ribozyme fitness (log ratio)” value is -3.53.
Consider C3A A16U C73G, for which the “polymerase ribozyme fitness (log ratio)” value was -3.81.
For C3A U7G U32C G60U G93C A111C, the “polymerase ribozyme fitness (log ratio)” value is -2.96.
Next, C3A A5U A29G U116C: -2.92.
Under C3A A5U G36C G47C A75U G77A A105G U106A C123U U130C stands -2.36.
Next, C3U C8U G71U C88U G117C: -4.1.
As to C3G U9A C85A, the “polymerase ribozyme fitness (log ratio)” value is -2.07.
Under A2U C8G stands -0.639.
Under A2G C73U stands -0.754; under C3U G51C G58A G63U C115G, -5.47; under C3U C12U C89G, -1.64.
In the case of A2G C13U C53U C72G, the “polymerase ribozyme fitness (log ratio)” value was -0.398.
Under C3U C12A G61C A84C U130C U133G stands -2.37; under A2G U54A G60C U106G, -2.29.
Under A2G C12U G47A G63U G113U stands -4.51; under A2G G110A C124A, -0.428; under A2U G23C G39A A50U G61C A91C G93C A111U, -6.
Under A2U C98U stands -3.18.
In the case of A2G U78A, the “polymerase ribozyme fitness (log ratio)” value turned out to be 0.0128.
Take C3A G71A U130C: the “polymerase ribozyme fitness (log ratio)” value is -0.935.
C3G A29U C49A G57U A121G: the “polymerase ribozyme fitness (log ratio)” value was -2.13.
Turning to A2U G120A, the “polymerase ribozyme fitness (log ratio)” value was -0.642.
On to C3U C73A G135U, for which the “polymerase ribozyme fitness (log ratio)” value is -1.52.
Under A2G C12U A29U G69C A75G C94A C123U stands -4.95; under A2U C11U G57U A91U, -4.18.
Under A2G G42A U54G C80A U112A stands -6.02.
As to C3G C22A C124G G128C, the “polymerase ribozyme fitness (log ratio)” value is -3.09.
As for C3G A16U U38G, the “polymerase ribozyme fitness (log ratio)” value was -4.66.
Take C3A C15A: the “polymerase ribozyme fitness (log ratio)” value was -3.67.
Take C3A C11U C99U: the “polymerase ribozyme fitness (log ratio)” value is -4.11.
Under C3A G61A stands -1.23.
Take A2G C114A C124A: the “polymerase ribozyme fitness (log ratio)” value was -0.647.
With A2U A50G C73U U78A, the “polymerase ribozyme fitness (log ratio)” value is -3.42.
Under C3U C86G G113C stands -3.51; under A2C G110C, -6.21.
Under A2U G35U stands -6.73; under C3U A24G G47C, -3.61.
Under C3U G48C G61U stands -0.989; under C3U G71U, -0.48; under C3A G57A C114U, -4.29.
Turning to C3U C80G, the “polymerase ribozyme fitness (log ratio)” value is -5.98.
C3A U9G G44A C62A C88G G113A C123G: the “polymerase ribozyme fitness (log ratio)” value is -4.87.
Next, A2U G51C G69A A121G U132C: -6.81; A2C G42A A46G G69U C115G: -4.92.
Next, A2U C8U A41C C56G G77U G122A: -2.93; A2U C11A G51A A66G G69U C98U: -4.43.
Next, C3U A50C C73A C85U G120U: -1.28; C3U C11A C13G A74G: -2.98.
For A2C C82A, the “polymerase ribozyme fitness (log ratio)” value was -2.04.
Next, A2G C115A: -0.495.
C3U U7G A84U C101U G110U U125A: the “polymerase ribozyme fitness (log ratio)” value is -3.16.
Under C3U A29C G61U stands -2.81; under C3A A74C, -2.99; under C3U C12A G60A, -1.22.
Next, A2U U54A C72A C101G U129A U130A: -2.15; A2C C72A C115G: -3.29; A2U C22G U33C C34A: -5.51.
Next, C3G C73U A90C: -3.32; C3U C40U A43G C53U C124U: -1.48.
For the variant A2G G93A, the “polymerase ribozyme fitness (log ratio)” value is -0.719.
Under A2C U87G stands -1.65.
Next, C3U A37U G61A G117A: -1.3; A2G G52C G60U: 0.0795; C3U G71U U125G: -1.58.
Next, C3U G10A G44C C49A G120U: 0.0361; A2G A43G: -2.05.
Take C3A C22G A37G A111G: the “polymerase ribozyme fitness (log ratio)” value was -4.63.
Under C3U G47U A105G stands -4.56; under C3A A6G C13U C15G U59C, -3.21.
Consider C3G C124A, for which the “polymerase ribozyme fitness (log ratio)” value was -0.505.
Next, C3U: -0.284; C3A: -1.22.
Next, C3G: -1.58; C3U C11G A24G C40U C62G: -3.32; A2U C13U C72G C114U: -3.41.
